Measurements reported in PMC12871438, “Single-molecule localization microscopy reveals the molecular organization of endogenous membrane receptors” (Science Advances, 2026).

Tests used:
[1] = target: CD45 (human (endogenous in Jurkat)) (UniProt P08575); assay: dSTORM localization statistics (number of localizations per cluster); live Jurkat T cells of large passage number labelled on ice with HI30-AF647, then fixed with 2% FA and 0.25% GA; TIRF on the basal membrane; DBSCAN clusters compared with theoretical monomer and dimer distributions
[2] = target: the molecule itself; assay: dSTORM localization statistics (number of localizations per cluster); Jurkat T cells labelled with FN50-AF647, live on ice or after PFA or FA fixation, independent of the passage number; DBSCAN clusters compared with theoretical monomer and dimer distributions

| stoichiometry N [1] | Molecule | stoichiometry N [2] |
| --- | --- | --- |
| 2 | CD45 (from UniProt P08575 26-1306) (receptor) | – |
| – | CD69 (receptor, human (endogenous in Jurkat), UniProt Q07108 1-199, looked up, CD69, endogenous in the plasma membrane of human Jurkat T cells; the introduction describes it as a phosphorylated disulfide-linked homodimer; Written as the protomer; the self-association row gives the dimer; Detected with the anti-CD69 antibody FN50-AF647; source: endogenous, on Jurkat T cells (Jurkat E6-1)) MSSENCFVAENSSLHPESGQENDATSPHFSTRHEGSFQVPVLCAVMNVVFITILIIALIALSVGQYNCPGQYTFSMPSDSHVSSCSEDWVGYQRKCYFISTVKRSWTSAQNACSEHGATLAVIDSEKDMNFLKRYAGREEHWVGLKKEPGHPWKWSNGKEFNNWFNVTGSDKCVFLKNTEVSSMECEKNLYWICNKPYK | 2 |
